# B1: PEM7: constitutive promoter, SEQ ID NO: 59 (nucleic acid)
# DNA: TTGTTGACAATTAATCATCGGCATAGTATATCGGCATAGTATAATACGACAAGGTGAGGAACTAAACC
# modifications: expressed or natural sequence
# Test system: msfGFP reporter gene under control of BCD10
# Type: cell-based, P. putida KT2440
# Conditions: 5 mM 3-FBz (inducible systems), 30 mM glucose, FIG. 6
molecule,measurement,value
B1,transcription initiation rate: quotient of OD630 nm-normalized fluorescence with the one of Ptac,0.57
